32 sequences from the supplement of paper PMC10201428 can be followed below.

± gives the standard deviation of the averaged measurements.

The series deals with VchCAST RNA-guided transposition machinery (E. coli BL21(DE3) host, lacZ target). Kind of series: relative integration efficiency (T-LR orientation) vs wild-type transposon end (log2 (normalized fold change)); transposon end mutated: right end (5 bp flank + 75 bp right end); higher = more efficient transposition. The procedure, abridged: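 A T7-driven effector plasmid encoding a CRISPR array, tniQ-cas8-cas7-cas6 and tnsA-tnsB-tnsC was co-transformed into E. coli BL21(DE3) together with a pUC57 mini-transposon donor holding barcoded pools of 1549 left-end or 1849 right-end variants. Transformants were plated with 0.1 mM IPTG at 37°C for 18 h. Illumina sequencing of PCR-amplified input plasmids and genomic integration junctions gave barcode abundances, and relative integration efficiency is their output/input fold change, normalised to reference barcodes and log-transformed.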
“ACATTTGTTGATACAACCATAAAATGATAATTAATAATTATTTATAATCAGCAACTTAACCACACACCCATAAATTGATAATTATCACACCCATAAATTGATATTGCCTCTGATCATAGTCAGACCA”: the “relative integration efficiency (log2)” value is -0.603 ± 0.78.
With “ACATTTGTAAAAAAAACCATACGTTGATTTTACGAAACCATACGCTGAAATAATCACAACCATAAATTGAAATTGCCTCTGATCATAGTCAGACCAACATTGCTACGACCCGTATTCGCACCGACAC”, the “relative integration efficiency (log2)” value is -6.41 ± 1.9.
On to “ACATTTGTTTATACAACCATAAAATGATAATTACACCCATAAATGGATTATTATCACACCCAATTTAACTATAACGCTCTGATCATAGTCAGACCAACATTGCTACGACCCGTATTCGCACCGACAC”, for which the “relative integration efficiency (log2)” value is -1.01 ± 0.12.
The figure for “ACATTTGTTGATACAACCATAAAATGATAATTACTGGGATAAATTGATAATTATCACACCCATAAATTGATATTGCCTCTGATCATAGTCAGACCAACATTGCTACGACCCGTATTCGCACCGACAC” is -0.993 ± 0.59; for “ACATTTGTTGATACAACCATAAAATGATAATTACAAAACGCCCGGTCGCCGGCGACACAAACGCCCGGTCGCGGTAAGAGGATCATAGTCAGACCAACATTGCTACGACCCGTATTCGCACCGACAC” it is 1.07 ± 0.12; for “ACATTTGTTGATACAACCATAAGTTGATATTTTCACCCATAAATTGATATTGCTCACACCCATAAATTGATAATTACTCTGATCATAGTCAGACCAACATTGCTACGACCCGTATTCGCACCGACAC” it is 0.36 ± 0.054.
The result for “ACATTTGTTGATATAATTATCATTTTATGGTTGTAATTATCATTTTATGGTTGTCATAATTATCATTTTATGGTTGCTCTGATCATAGTCAGACCAACATTGCTACGACCCGTATTCGCACCGACAC” reads -6.39 ± 2.5.
The result for “ACATTTGTGGATACAACCCTAAAATGATAATTACACCCATAAATTCATAATTATCACACCCAATTTAACTATAACGCTCTGATCATAGTCAGACCAACATTGCTACGACCCGTATTCGCACCGACAC” reads -2.97 ± 0.11.
Take “ACATTTGTTGATACAACCATAAAGTGATATTTACACCCATAAATTGATAATTATCACAACCATAAGTTGATATTTTCTCTGATCATAGTCAGACCAACATTGCTACGACCCGTATTCGCACCGACAC”: the “relative integration efficiency (log2)” value was -0.245 ± 0.3.
The result for “ACATTTGTTGATACAACCATAAAATGATAATTACACCCATAAATTGATAATTATGACACCGAATTTAACTATAACGCTCTGATCATAGTCAGACCAACATTGCTACGACCCGTATTCGCACCGACAC” reads 2.37 ± 0.096.
The figure for “ACATTTGTTGATACACCCATAAATTGATAATTACACCCATAAATTGATAATTATCACAACCATAAAGTGATATTTACTCTGATCATAGTCAGACCAACATTGCTACGACCCGTATTCGCACCGACAC” is -0.01 ± 0.22; for “ACATTTGTCGATACAACCCTAAAATGATAATTACACCCATAAATTGATAATTATCACACCCAATTTAACTATAACGCTCTGATCATAGTCAGACCAACATTGCTACGACCCGTATTCGCACCGACAC” it is 1.04 ± 0.3.
Regarding “ACATTTGTTGATACAACCATAAAATGATAATTACACCCATAAATTGATAATGCGAACACCCATAAATTGATATTGCCTCTGATCATAGTCAGACCAACATTGCTACGACCCGTATTCGCACCGACAC”, the “relative integration efficiency (log2)” value came to 0.16 ± 0.083.
In the case of “ACATTTGTTGATACAACCATAAAATGATAATTACAACCATAAAATGATAATTATCACAACCATAAAATGATAATTACTCTGATCATAGTCAGACCAACATTGCTACGACCCGTATTCGCACCGACAC”, the “relative integration efficiency (log2)” value was -0.536 ± 0.21.
The figure for “ACATTTGTTGATACAACCAATAAATGATAAATACACCCATAAATTGATAATGATGACACCGAATTTAACTATAACGCTCTGATCATAGTCAGACCAACATTGCTACGACCCGTATTCGCACCGACAC” is 1.75 ± 0.069; for “ACATTTGTTGATACAACCATAAAATGATAATTACACCCATAAATTGATAATTATCACACCCATAAATTGATATTGCCTCTTCATGTGAGCCCAGGCAGTAAGTTTACGACATTTTCAGCACCGACAC” it is 2.37 ± 0.34.
As to “ACATTTGTTGATACAACCATCAAATGATAATTACACCCCTACATTGATAATTATCACACCCAATTTAACTATAACGCTCTGATCATAGTCAGACCAACATTGCTACGACCCGTATTCGCACCGACAC”, the “relative integration efficiency (log2)” value was -1.57 ± 0.21.
“ACATTTGTTGATACAACCATAAAATGATAATTACACCCATAAAGGTCGCCGGCGACACAAACGCCCGGTCGCGGTAAGAGGATCATAGTCAGACCAACATTGCTACGACCCGTATTCGCACCGACAC”: the “relative integration efficiency (log2)” value was 0.613 ± 0.011.
The result for “ACATTTGTTGATACAACCATAAAATGATAATTACACCCTATTATTGATAATTATCACACCCATAAATTGATATTGCCTCTGATCATAGTCAGACCAACATTGCTACGACCCGTATTCGCACCGACAC” reads -0.974 ± 0.13.
The result for “ACATTTGTCGATCCAACCATAAAATGATAATTACACCCATAAATGGATCATTATCACACCCAATTTAACTATAACGCTCTGATCATAGTCAGACCAACATTGCTACGACCCGTATTCGCACCGACAC” reads 0.888 ± 0.17.
The result for “ACATTTGTTGATACAACCATAAAATGATAATTAATAATTATTTATAATCAGCAACTTAACCCACCCATAAATTGATAATTATCAACAAACGCCCGGTCGCGGTACTCTGATCATAGTCAGACCAACA” reads 0.743 ± 0.49.
As to “ACATTTGTTGATACAACCATAAAATGATAATTACCCCCATAAATTGATAATTATCCCACCCAATTTAACTATAACGCTCTGATCATAGTCAGACCAACATTGCTACGACCCGTATTCGCACCGACAC”, the “relative integration efficiency (log2)” value is 2.06 ± 0.12.
The result for “ACATTTGTTGATACAACCATAAAATGATAATTACACCCATAAATTGATAATTATCACACCCATAAATTGATATTGCCTCCAACCATAAAATGATAATTATGATCATAGTCAGACCAAGCACCGACAC” reads -0.77 ± 0.082; that for “ACATTTGTTGATACAACCATAAAATGATAATTATAATTATCATTTTATGGTTGTCACAACCATAAAATGATAATTACTCTGATCATAGTCAGACCAACATTGCTACGACCCGTATTCGCACCGACAC”, -1.19 ± 0.18.
The result for “ACATTTGTTGATACAACCATAAGTTGATATTTTCAACCATATATTGATATCTCTCACAACCATAAAGTGATATTTACTCTGATCATAGTCAGACCAACATTGCTACGACCCGTATTCGCACCGACAC” reads -0.077 ± 0.032; that for “ACATTTGTTGATACAACCATAAAATGATAATTACCACCCATAAATTGATAATTATCACACCCATTTAACTATAACGCTCTGATCATAGTCAGACCAACATTGCTACGACCCGTATTCGCACCGACAC”, 1.69 ± 0.051.
For the sequence “CAAAATGTAAAAAAAACCATACGTTGATTTTACGAAACCATACGCTGAAATAAAAACAACCATACCTTGAAATTGCTTATGATCATAGTCAGACCAACATTGCTACGACCCGTATTCGCACCGACAC”, the “relative integration efficiency (log2)” value was -4.98 ± 2.3.
Take “ACATTTGTTGATACAACCATAAAATGATAATTACACCCATAAATTGATAATTTAGTCACCCATAAATTGATATTGCCTCTGATCATAGTCAGACCAACATTGCTACGACCCGTATTCGCACCGACAC”: the “relative integration efficiency (log2)” value was 0.247 ± 0.11.
With “ACATTTGTTGATACAACCATAAAATGATAATTACACCCATAAATTGATAAGGATCACACCCATAAATTGATATTGCCTCTGATCATAGTCAGACCAACATTGCTACGACCCGTATTCGCACCGACAC”, the “relative integration efficiency (log2)” value is -0.0336 ± 0.22.
“ACATTTGTTGATACAACCATAAAATGATAATTACCACCCCTAAATTGATAATTATCACACCCATTTAACTATAACGCTCTGATCATAGTCAGACCAACATTGCTACGACCCGTATTCGCACCGACAC”: the “relative integration efficiency (log2)” value is -0.321 ± 0.18.
The figure for “ACATTTGTCGATACAACCCTAAAATGATAATTACACCCATAAATGGATAATTATCACACCCAATTTAACTATAACGCTCTGATCATAGTCAGACCAACATTGCTACGACCCGTATTCGCACCGACAC” is -0.544 ± 0.14; for “ACATTTGTTGATACCACCATCAAATGATAATTACACCCATAAATTGATAATTATCACACCCAATTTAACTATAACGCTCTGATCATAGTCAGACCAACATTGCTACGACCCGTATTCGCACCGACAC” it is 1.14 ± 0.18.
